Data from the supplement of paper PMC9170038.

Columns and labels:
MS2 coat protein [1] = assay: apparent KD of MS2 coat protein, switch ON state; designed switch direction (-1 OFF switch, 1 ON switch): -1; higher = weaker reporter binding; conditions: FMN input: 0 or 200 uM; Eterna round: R93 (includes R88 designs)
How it was run: (§1)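 With or without constant ligand, designed RNA switches in 100 mM Tris-HCl pH 7.5, 80 mM KCl and 4 mM MgCl2 were titrated with SNAP-549-labelled MS2 coat protein. Concentrations went up in twofold steps from 0.7 or 1.5 nM to 3 µM. The switches had been transcribed on-chip from Illumina sequencing clusters, and apparent KD is the per-design median of normalised cluster binding-curve fits.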

MS2 coat protein [2] = assay: apparent KD of MS2 coat protein, switch OFF state (with FMN for OFF switches, without FMN for ON switches); designed switch direction (-1 OFF switch, 1 ON switch): -1; higher = weaker reporter binding; conditions: FMN input: 0 or 200 uM; Eterna round: R93 (includes R88 designs)
How it was run: as §1

| Sequence | apparent KD of MS2 coat protein (MS2 coat protein [1]) [nM] | apparent KD of MS2 coat protein (MS2 coat protein [2]) [nM] |
| --- | --- | --- |
| AAGAGUAGAGGAUAUAUAUGAAAAGAGUCGAAAGACUCAAAACAUGAGGAUCACCCAUGUAGAAGGCUACUCAA [Hyphema Seclusion mod] | 18.7 | 17.5 |
| AAGAUGUAAGGAUAUGCUGCUCGUCACAAAAGUGAUGAGUAGCAGAAGGUACAUGAGGAUCACCCAUGUAAAGA [JL eternac mod 10] | 31.5 | 44 |
| AAGGGACAUGAGGAUCACCCAUGUAAGGAUAUCGGAAAAGGAAAAAAAAAAAAGAAGACGAGAAGGUACAAAAA | 122 | 71.6 |
| AAGGGACAUGAGGAUCACCCAUGUGAGGAUAUGACGUAAAUAAAGAAAGAAGAAAUCGUCAGAAGGCACACCAA [55%, Disencluded 2, 3] | 67 | 117 |
| AAGGGACAUGAGGAUCACCCAUGUUAGGAUAUGCUAUGGAAAAUAAAAUAAAAACAUAGCAGAAGGAACAAAAA [Mat - Exclusion 1 - Eli mod - D36] | 43.2 | 60.5 |
| AAGGUAGGAGGAUAUACAUAGAUACAGAUACAUGUAGACGUACAUGAGGAUCACCCAUGUAGAAGGCCUAUAUA [Mat - Same state - Mayanna Mod - D147] | 97.3 | 107 |
| AAGUGCGCAGGAUAUACAUGAGGAUCACCCAUGUAAAGAAAAGAAAGAUCCGAAGAAAGUAGAAGGGCGUGCAA [Variant 1 of Mod 1 of Ex3 sub 3, by Tesla's Dusciple Round 1] | 49.6 | 209 |
| AAUAUGUCAGGAUAUGUGUAAAGAAUAAAAGAAAUAACAACACAGAAGGGACAUGAGGAUCACCCAUGUCAACA [May 33] | 24.8 | 18 |
| AAUGGUGCAGGAUAUACAUGAGGAUCACCCAUGUAGAUCAGACAUAUGGUCGAAACAUGUAGAAGGGCACCAAA [Ex 3May 54] | 112 | 319 |
| AAUGUACGAGGAUAUACAUAGAUACAGAUACAUGUAGACGUACAUGAGGAUCACCCAUGUAGAAGGCGUAUAUA [Mat - Same state - Mayanna Mod - D113] | 82.8 | 172 |
| ACAAAACAUGAGGAUCACCCAUGUGAGGAUAUGCGAAACAAACAAACAAACAAACAAAGCAGAAGGCACAACAA [Ex 1 Tesla 3] | 19.5 | 31 |
| ACAAGACAUGAGGAUCACCCAUGUGAGGAUAUGCUCGGAUGACAUGACGUUAGCUAACGCAGAAGGCACAAUAA [Exclusion 1] | 28.7 | 36.7 |
| ACAGUUACAGGAUAUACAUGAAUAACUUCAAAGAAAACUCUACAUGAGGAUCACCCAUGUAGAAGGGUAACUGA [Ex2 Design 200 (fingers crossed): Random 18] | 14.3 | 18.8 |
| ACCUGACAUGAGGAUCACCCAUGUCAGGAUAUGACUUCGAAAAUAAAAUAAAACGAUGUCAGAAGGGACAUGGG [Design 71: Sub-opt PB] | 21.8 | 15.3 |
| ACUAAUGAAGGAUAUACAAACAAAAAAAAAACAAAAAAAAAACAUGAGGAUCACCCAUGUAGAAGGUCAAAAAU [JR_Exc002_Sub1201] | 22 | 20 |
| ACUGAUACAGGAUAUACAUGAGUGAAAAAAGUAAAUCCACUACAUGAGGAUCACCCAUGUAGAAGGGUAUCAGA [Ex2 Design 179: Random 5B] | 52.1 | 42.7 |
| ACUGAUACAGGAUAUACGUGAGUGGAAAAAGUGUUUCCACUACAUGAGGAUCACCCAUGUAGAAGGGUAUCAGA [Ex2 Design 180: Random 6] | 77.4 | 91.5 |
| ACUUGACAUGAGGAUCACCCAUGUCAGGAUAUAGUACGACAAAUAAAUAAAAGUUCUACUAGAAGGGAUAUGGA [Amethyst 53] | 17 | 15.5 |
| AGAAAGCGAGGAUAUGCUCGGGUUGAAUGACGAGAGAAUACACAUGAGGAUCACCCAUGUAGAAGGUGUAUAAA [JR_Exc002_Sub1712] | 54 | 35.1 |
| AGAAAGGCAGGAUAUACAUGAGGAUCACCCAUGUUAAGAAAGUGCGAAAGCACAAGAAGUAGAAGGGCCAAGAA [Rupert goes to college] | 23.2 | 19.2 |
| AGAAAGUCAGGAUAUACGAAAGUGCGAAAGCACACAAGGGAACAUGAGGAUCACCCAUGUAGAAGGGACAAGAA [Diamond 78] | 70.9 | 91.7 |
| AGAACGUCAGGAUAUCGAACAACAAGUAAAUAGAGAAGAAGCGAGAAGGGACAUGAGGAUCACCCAUGUAAGAA [e4-3] | 62.5 | 48.9 |
| AGAACGUCAGGAUAUGCAACAACAAGUAAAUAGAGAAGAAGGCAGAAGGGACAUGAGGAUCACCCAUGUAAGAA [e4] | 44.1 | 29.9 |

| Sequence | apparent KD of MS2 coat protein (MS2 coat protein [1]) [nM] | apparent KD of MS2 coat protein (MS2 coat protein [2]) [nM] |
| --- | --- | --- |
| AGAAUACAUGAGGAUCACCCAUGUGAGGAUAUGCAAAUAAAAAUAAAAUAAAAUAAUUGCAGAAGGCACGAAAG [EX 1 May 23] | 44.4 | 91.2 |
| AGCAAACAUGAGGAUCACCCAUGUGAGGAUAUGAACGAAAAUAAAUAAAAAUAAAAGUUCAGAAGGCACGAGCA [66%, Wbt, 26] | 30.4 | 35.6 |
| AGCAAGAGAGGAUAUACAUAAAAAAAAAAAGUCUGAUCCCUACAUGAGGAUCACCCAUGUAGAAGGCUCUGGCA [Ex2 Design 156: Sub-opt 20] | 28.8 | 26.2 |
| AGCUAGUCAGGAUAUACAAAAUGAUUGCAAAAGCAAUCAACACAUGAGGAUCACCCAUGUAGAAGGGACUAGCA [Mat - Exclusion 2 - JL-Eli mod - D44] | 19 | 19.4 |
| AGCUAGUCAGGAUAUACAAACAUGUCAAAAGACGUGAAAAGACAUGAGGAUCACCCAUGUAGAAGGGACUAGCA [Mat - Exclusion 2 - JL mod - D14] | 29.8 | 90.5 |
| AGCUAGUCAGGAUAUACGAACAGGUCAAAAGACUUGAAGGGACAUGAGGAUCACCCAUGUAGAAGGGACUAGCA [Mat - Exclusion 2 - JL mod - D25] | 32.2 | 128 |
| AGCUAGUCAGGAUAUACGAACAUGUCACAAGACGUGAAGGGACAUGAGGAUCACCCAUGUAGAAGGGACUAGCA [74%, Web mod - With 1 more C's] | 52.9 | 203 |
| AGCUAGUCAGGAUAUACGCAAACGAACGAAGCAGUGAAGGGACAUGAGGAUCACCCAUGUAGAAGGGACUAGCA [Diamond 30] | 26.8 | 75.5 |
| AGGAAACAUGAGGAUCACCCAUGUAAGGAUAUGAACGAAAAUAAAUAAAAAUAAAAGUUCAGAAGGUACGAAAA [66%, Wbt, 7] | 30.7 | 55.1 |
| AGGAAACAUGAGGAUCACCCAUGUCAGGAUAUUUGAAAGAAAAGAAAAGAAAGAAGAAGAAGAAGGGACAAGAA [Narmer] | 27.6 | 31.1 |
| AGGAAACAUGAGGAUCACCCAUGUGAGGAUAUAGAAAAGAAAAGAAAAGAAAGAAGAACUAGAAGGUACAAGAA [Menkauhor Kaiu] | 21 | 26.8 |
| AGGAAACAUGAGGAUCACCCAUGUGAGGAUAUGUAAAAGAAAAGAAAAGAAAGAAGAAACAGAAGGCACAAGAA [Nynetjer] | 49.4 | 49.1 |
| AGGAAGUGAGGAUAUGCAUCAUAUAGUGGACGCUAUAGGAUGUAGAAGGCACAUGAGGAUCACCCAUGUUUAAA [EX4 Malc#40] | 29 | 32 |
| AGGAUGUCAGGAUAUGCGUGAAGAAUAAAACAAAUAACAACGCAGAAGGGACAUGAGGAUCACCCAUGUUAAGA [May 46] | 45.2 | 68.3 |
| AGGAUGUCAGGAUAUGUGUAAAGAAUAAAACAAAUAACAACACAGAAGGGACAUGAGGAUCACCCAUGUUACGA [May 43] | 31.1 | 37.3 |
| AGGAUGUCAGGAUAUGUGUAAAGAAUAAAAGAAAUAACAACACAGAAGGGACAUGAGGAUCACCCAUGUUAAAA [May 35] | 48.8 | 44.3 |
| AGGGAGUCAGGAUAUCGGAAAACAAAACAACGAAAAAAAGACGAGAAGGGACAUGAGGAUCACCCAUGUAAGAA [milkweed 17] | 41.4 | 21.6 |
| AGGGAGUGAGGAUAUGCGAAAGAAAAAGAAGGAAAAAAAAAGCAGAAGGUACAUGAGGAUCACCCAUGUAAAAA [milkweed 7] | 26.5 | 16.9 |
| AGUCAUACAGGAUAUACAUGAGGAUCACCCAUGUUUAUCCUAAAAGGGUGAUCCUCAUGUAGAAGGGUAUGACA [EX3 209: Super Stable 9] | 23.7 | 14.5 |
| AGUGAGUGAGGAUAUUACUGAAGAAUAAAAGAAAUAACAAGUAAGAAGGCACAUGAGGAUCACCCAUGUACACA [May 61] | 22.4 | 22 |
| AGUUGGCGAGGAUAUACAUGAGGAUCACCCAUGUAAAAUAAAUAAAAAGGGAAAAAGAGUAGAAGGCGCUGACA [73%, Moding Norbert Elias, 8] | 42.6 | 192 |
| AGUUGGCGAGGAUAUACAUGAGGAUCACCCAUGUGGAAGAAAAAAGUGAGAAAGAAAAGUAGAAGGCGCUGACA [Mat - Exclusion 3 - Lego mod - D87] | 67.5 | 316 |
